One experiment deals with T1, human GITR (ECD)-mFc (human, UniProt Q9Y5U5 26-162).
T1 construct: extracellular domain; Bought (Dongda Bioscience); also called GITR-mFc; not shown: mouse Fc (mFc)
T1 sequence (looked up): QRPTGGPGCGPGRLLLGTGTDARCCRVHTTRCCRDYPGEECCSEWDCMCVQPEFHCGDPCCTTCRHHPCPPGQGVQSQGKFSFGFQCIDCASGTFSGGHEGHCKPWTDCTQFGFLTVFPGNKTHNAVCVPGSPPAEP
The experiment can be described thus: ELISA, plate-coated GITR-mFc. How it is done: As indicated by the X axis, the concentrations of the test antibodies were 20000 ng/mL, 2000 ng/mL, 200 ng/mL, 20 ng/mL, 2 ng/mL, 0.2 ng/mL, 0.02 ng/mL, 0.002 ng/mL, 0.0002 ng/mL, and 0.00002 ng/mL.

Experiment [1] concerns the target T2, human GITR on cells (293T-GITR, Jurkat-hGITR / Jurkat-GITR, Jurkat-GITR-NF-kB, 293T-GITR-NFkb-luc, primary … (human, UniProt Q9Y5U5 26-241)).
T2 construct: whole, on cells; also called TNFRSF18; CD357
T2 sequence (looked up): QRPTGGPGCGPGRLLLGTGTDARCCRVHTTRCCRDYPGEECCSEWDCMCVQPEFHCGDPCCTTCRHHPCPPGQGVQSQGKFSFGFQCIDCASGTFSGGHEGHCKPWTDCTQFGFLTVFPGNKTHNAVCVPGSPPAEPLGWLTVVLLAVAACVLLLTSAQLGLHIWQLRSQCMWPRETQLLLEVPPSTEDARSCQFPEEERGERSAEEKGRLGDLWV
The experiment can be described thus: FACS (MFI), binding to Jurkat-GITR cells.

For experiment [2], the target named is T2, human GITR on cells (293T-GITR, …). The experiment can be described thus: FACS, blocking of GITR-L (0.25 ug/mL) binding to Jurkat-GITR cells.
Experiment [3] has the same target. The experiment can be described thus: FACS competition on Jurkat-hGITR cells; competitor biotin-labeled human GITR ligand. As to the method: FACS assay for the blocking effect of the antibodies: FACS assay was conducted by using BD C6 to determine the blocking effect of the hybridoma antibodies on the binding of biotin-labeled human GITR ligands to Jurkat-hGITR cells. Jurkat-hGITR cells were suspended in FACS buffer (PBS containing 3% FBS). Diluted hybridoma antibodies were added into the cell suspension and the mixture was incubated in a 96-well plate for 1 hour at 4° C. […] After incubation, the 96-well plate was washed 3 times, and mouse anti-biotin PE antibodies (Biolgend, Cat No: 409004) were added and incubated at 4° C. for 0.5 hours. The cells in the 96-well plate were washed 3 times and finally analyzed with BD C6.

The target in another experiment is T3, GITR-ECD-hFc (UniProt Q9Y5U5 26-162, limits assumed).
T3 construct: extracellular domain; not shown: human Fc (hFc)
T3 sequence (looked up): T1 sequence (looked up)
The experiment can be described thus: ELISA, plate-coated GITR-ECD-hFc. As to the method:
ELISA assay: a 96-well ELISA plate (Corning, Cat No: 9018) was inoculated with GITR-ECD-hFc, left standing overnight at 4° C., and washed 3 times with washing buffer (PBS+0.05% Tween 20), then blocking buffer (PBS+1% BSA (Sigma, Cat No: V90093)) was added, and the 96-well ELISA plate was incubated for 1 hour and washed 3 times; hybridoma supernatant was added, the 96-well ELISA plate was incubated for 1 hour and washed 3 times, 100 µL of goat anti-mouse IgG secondary antibodies (Thermo, Cat No: 31432) diluted at a ratio of 1:10000 was added into each well, and the 96-well ELISA plate was incubated at room temperature for 1 hour and washed 3 times. 100 µL of TMB (Biosubstrate Technologies, Cat No: ES-002) was added into each well and left standing for 3 minutes for color development, then a stop solution (2N H₂SO₄) was added at a dose of 100 µL/well to terminate the reaction, and OD450×signal of each sample was measured with a Tecan Spark microplate reader.

Where a chain is given by its changes, count along the chain named. Numbers in names are those of the source.

B1: 3F5 (humanized) -hIgG1 (antibody, V domains shown)
VH: QVQLVQSGAEVKKPGASVKVSCKASGYTFTDHYMHWVRQAPGQGLEWIGDINPNSGGTINNQNFKGRATLTVDKSISTAYMELSRLRSDDTAVYYCARGFSGLAYWGQGTLVTVSS
VL: DIVMTQTPLSSPVTLGQPASISCKSSQSLLDRDGKTYLNWLQQRPGQPPRRLIYLVSILDSGVPDRFSGSGAGTDFTLKISRVEAEDVGVYYCWQGTHFPWTFGQGTKLEIKR
notes: also called h3F5-hIgG1; h3F5-IgG1
For the molecule B1, the concentration for a half-maximal effect (EC50 (read off the curve)) in the experiment with human GITR (ECD)-mFc is ~0.02 µg/mL. The molecule also showed a 50% effective concentration (EC50) in experiment [1] of 0.112 µg/mL. The same molecule showed an IC50 in experiment [2] of 0.101 µg/mL.

B2: 10E11VH(G24A/A67V)-hIgG1(3A) (antibody)
heavy: EVQLVQSGAEVKKPGESLRISCKASGYPVSRYWIEWVRQMPGKGLEWIGEILPGSDYANYNEKFKGHVTFSADISISTAYLQWSSLKASDTAMYYCSRKGAYYALDFWGQGTLVTVSSASTKGPSVFPLAPSSKSTSGGTAALGCLVKDYFPEPVTVSWNSGALTSGVHTFPAVLQSSGLYSLSSVVTVPSSSLGTQTYICNVNHKPSNTKVDKKVEPKSCDKTHTCPPCPAPELLGGPSVFLFPPKPKDTLMISRTPEVTCVVVDVSHEDPEVKFNWYVDGVEVHNAKTKPREEQYNATYRVVSVLTVLHQDWLNGKEYKCKVSNKALPAPIAATISKAKGQPREPQVYTLPPSRDELTKNQVSLTCLVKGFYPSDIAVEWESNGQPENNYKTTPPVLDSDGSFFLYSKLTVDKSRWQQGNVFSCSVMHEALHNHYTQKSLSLSPG
light: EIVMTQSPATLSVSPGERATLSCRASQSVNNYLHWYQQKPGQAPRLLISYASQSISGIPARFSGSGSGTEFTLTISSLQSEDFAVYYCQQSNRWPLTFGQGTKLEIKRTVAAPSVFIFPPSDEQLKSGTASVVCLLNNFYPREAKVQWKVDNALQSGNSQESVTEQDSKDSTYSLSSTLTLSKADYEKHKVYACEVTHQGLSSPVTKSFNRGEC
notes: Humanized 10E11 (AV), human IgG1 with the 3A Fc variant; also called 10E11VH(AV)-hIgG1(3A); h10E11(AV)-hIgG1(3A)
As for B2, the concentration for a half-maximal effect (EC50 (read off the curve)) with human GITR (ECD)-mFc was ~0.006 µg/mL. In experiment [1], this molecule showed a half-maximal effective concentration (EC50) of 0.102 µg/mL. The 50% inhibitory concentration (IC50) in experiment [2] turned out to be 0.151 µg/mL.

B3: 9B3 (murine) (antibody, V domains shown)
VH: QVQLQQSGAELMNLGASVKISCKATGYPVSRYWIEWLKQRPGHGPEWIGEILPGSDYANYNEKFKGKATFTADISSNSAYMQLSSLTSEDSAVYYCSRKGAYYALDFWGQGTSVTVSS
VL: DIVMTQSPATLSVTPGERVSLSCRASQSVNNYLHWYQQKSHESPRLLISYVSQSISGISSRFSGSGSGTDFTLIIHSVETEDFGMYFCQQSNRWPLTFGAGTKLELK
notes: Mouse hybridoma monoclonal antibody
Molecule B3 gave an IC50 in experiment [3] of 0.0413 µg/mL.

B4: 13G12 (murine) (antibody, V domains shown)
VH: QVQLQQPGTELVKPGASVKLSCKASGYTFTSNWMNWVKQRPGHGLEWIGNIYPSNGGTNYNEKFKSKATLTVDKSSSTAYMQLRGLTSEDSAVYYCVRHSNYVGAMDYWGQGTSVTVSS
VL: QIVLTQSPAIMSASPGEKVTMTCGASSSVSYMYWFQQKPGSSPRLLIYDTFNLASGVPVRFSGSESGTSYSLTISRMEAEDAATYYCQHWSSYPPTFGSGTKLEIDR
notes: as for B3
As to B4, it took 0.0103 µg/mL to reach a half-maximal effect with GITR-ECD-hFc (EC50). The same molecule displayed an IC50 in experiment [3] of 4 µg/mL.

B5: h4B11-hIgG1 (antibody, V domains shown)
VH: EVQLVQSGAEVKKPGASVKVSCKASGFTFTDSVLHWVRQAPGQRLEWIGYIHPYNDDTKFHDSFKGRATLTSDKSASTAYMELSSLRSEDTAVYYCSRNDELRVALDYWGQGTLVTVSS
VL: EIVLTQSPATLSLSPGERATLSCRASQSVSTSTYSYVHWYQQKPGQAPRLLIKYASNLESGIPARFSGSGSGTDFTLTISSLEPEDFAVYYCQHSWGNPWTFGGGTKVEIKR
notes: Humanized 4B11, human IgG1; also called 4B11 (humanized); h4B11-IgG1
As to B5, the concentration for a half-maximal effect (EC50 (read off the curve)) with human GITR (ECD)-mFc is ~0.005 µg/mL. The molecule further had an EC50 in experiment [1] of 0.132 µg/mL. In experiment [2], the concentration for half-maximal inhibition (IC50) was found to be 0.284 µg/mL.

B6: h4E4-hIgG1 (antibody, V domains shown)
VH: QVQLVQSGAEVKKPGASVKVSCKASGYTFTDHYMNWVRQAPGQGLEWIGDIDPKNGGTLYNQNFKGRATLTVDKSISTAYMELSRLRSDDTAVYYCARREAMDYWGQGTLVTVSS
VL: DVVMTQSPLSLPVTPGEPASISCRSSQSIVYSNGNTYLNWYLQKPGQSPQLLIYKVSNRFSGVPDRFSGSGSGTDFTLKISRVEAEDVGVYYCFQGSHVPWTFGGGTKVEIKR
notes: Humanized 4E4, human IgG1; also called 4E4 (humanized); h4E4-IgG1
Regarding B6, the concentration giving a half-maximal response (EC50 (read off the curve)) with human GITR (ECD)-mFc is ~0.06 µg/mL. For the same molecule, it took 0.0895 µg/mL to reach a half-maximal effect in experiment [1] (EC50). This molecule also had a 50% inhibitory concentration (IC50) in experiment [2] of 0.169 µg/mL.

B7: 4E4 (murine) (antibody, V domains shown)
VH: EVQLQQSGPELVKPGASVKISCKASGYTFTDHYMNWVKQSHGKSLEWIGDIDPKNGGTLYNQNFKGRATLTVDKSSSTAYMDLRSLTSEDSAVYYCARREAMDYWGQGTSVTVSS
VL: B6 VL with V3L, S7I, T14S, P15F, E17D, P18Q, Q50K, V88L, V109L
notes: as for B3
On to B7, for which the EC50 with GITR-ECD-hFc was 0.0017 µg/mL.
